{"source": "patent US20190381171A1", "about": "“CO-USE OF ANTI-BCMA ANTIBODY AND ANTIBODY-COUPLED T CELL RECEPTOR (ACTR) IN CANCER THERAPY AND B CELL DISORDERS” (UNUM THERAPEUTICS INC., priority 2017, published 2019)", "molecules": {"B1": {"name": "cSG16.45SEA: afucosylated (SEA) version of the chimeric SG16.45 anti-BCMA antibody (antibody, V domains shown)", "VH": "EVQLVESGGGLVQPGRSLKLSCVASGFTFNDHWMTWIRQAPGRGLEWISSITNTGGATYYLDSVKGRFTISRDNAKSTLYLQMNSLRSEDTATYYCTSPGLYFDYWGQGVMVTVSS", "VL": "EIVLTQSPTTTAASPGEKVTITCLATSSVSVMYWYQHKSGASPKLLIYSTSSLASGVPDRFSGSGSGTSYSLTINTMEAEDAATYYCHQWSSDPPTFGSGTKLEIKR"}}, "key": {"[1]": {"test_system": "NCI-H929 target cells", "experiment": "ACTR T-cell cytokine release (IFNγ, IL2; Meso Scale Discovery) in co-culture with target cells and antibody", "format": "cell-based, human", "conditions": "T-cells expressing ACTR variant SEQ ID NO: 1, E:T 4:1, 24 hours, increasing antibody concentration (FIG. 4 chimeric, FIG. 9 humanized)", "description": "T-cells expressing ACTR variant SEQ ID NO: 1 (effector; E) and target cells (target; T) were incubated at a 4:1, effector-to-target ratio (120,000 T cells; 30,000 target cells) with increasing concentrations of various chimeric antibodies in a 200-μL reaction volume in RPMI 1640 media supplemented with 10% fetal bovine serum. In FIG. 4, the chimeric antibodies included fucosylated and afucosylated (SEA) versions of the SG16.17 and SG16.45 anti-BCMA antibodies at a concentration range of 100-0.0005 μg/mL. In FIG. 9, humanized afucosylated (SEA) SG16.17 antibody was used at a concentration range of 3.8-0.002 μg/mL. […] Supernatants were subsequently analyzed for IFNγ and IL2 using the Meso Scale Discovery V-Plex Human IFN-γ Kit (K151QOD-4) and V-Plex Human IL-2 Kit (K151QQD-4). Briefly, the Proinflammatory Calibrator Blend, Detection Antibody Solution, and Read Buffer were prepared according to manufacturer protocols. […] Read Buffer (150 μL) was added to the plate and the plates were run on the MSD Quickplex SQ 120.\nFor these experiments, BCMA+ HER2− NCI− H929 and BCMA− HER2+ SKBR3 target cells were used. […] Supernatants were subsequently analyzed for IFNγ using the Meso Scale Discovery V-Plex Human IFN-γ Kit (K151QOD-4). Briefly, the Proinflammatory Calibrator Blend, Detection Antibody Solution, and Read Buffer were prepared according to manufacturer protocols. […]"}, "[2]": {"test_system": "NCI-H929 target cells", "experiment": "Activation markers (CD25, CD69) on ACTR T-cells by flow cytometry", "format": "cell-based, human", "conditions": "ACTR variant SEQ ID NO: 1, E:T 1:1, 1 μg/mL antibody, 24 hours", "description": "T-cells (effector; E) and target cells (target; T) were incubated at a 1:1, effector-to-target ratio (30,000 T cells; 30,000 target cells) with 1 μg/mL of anti-BCMA antibodies in a 200-μL reaction volume in RPMI 1640 media supplemented with 10% fetal bovine serum. Reactions were incubated in a CO2 (5%) incubator at 37 degrees C. for 24 hours. Geometric Mean Fluorescence intensity (gMFI) of two activation markers, CD25 and CD69 were determined in the total CD3+ CD16+ ACTR T-cell gate via flow cytometry. Briefly, cells were washed twice in staining buffer before being stained with a Live/Dead eFluor-450 dye for 30 min at 4 degrees C. After incubating in the live/dead cell stain, cells were washed twice and incubated with 100 μL of an antibody cocktail consisting of AF488-conjugated anti-human CD3 antibody, APC-conjugated anti-human CD16 antibody, PerCP-Cy5.5-conjugated anti-human CD25 antibody, and BV510-conjugated anti-human CD69 antibody. Subsequently, cells were washed twice, fixed, permeabilized, and stained for intracellular molecules prior to detection via flow cytometry. […]\nT-cells (effector; E) and NCI-H929 target cells (target; T) were incubated at varying effector-to-target ratios in the presence of 1 μg/mL hSG16.17 SEA antibody. […] The geometric mean fluorescence intensity of CD25 was calculated within the CD3+ T-cell gate and was plotted as a function of E:T ratio (FIG. 17)."}}, "data": [{"molecule": "B1", "values": [{"measurement": "ACTR T-cell IFNγ and IL2 release", "setting": "[1]", "value": "increased potency in cytokine release when compared to their fucosylated counterparts"}, {"measurement": "levels of activation markers CD25 and CD69 (gMFI) on ACTR T-cells", "setting": "[2]", "value": "enhanced expression of CD25 and CD69 when compared to incubations with their fucosylated counterparts"}]}]}
